From patent publication US20200299408A1 (Genentech, published 2020) come the findings set out here.

“And” between values parts separate entries of the source, which are not always exact repeats. Identical values can stand only once.

Assay [1] deals with T1, human CD3 on T cells (human, UniProt P07766 22-207).
T1 construct: whole, on cells; On cells CD3ε stands in the CD3/TCR complex; also called CD3 antigen; CD3ε
As to the kind of experiment: Scatchard; table 'Monovalent Binding Affinity'; the partner arm is not given, the TDB is taken from legend paragraph 149, p-1410 and Figure 16; cells not named.

Assay [2] has as its target T1, human CD3 on T cells. The assay can be described thus: FACS on Jurkat cells, anti-huIgG-PE, MFI/PE; panel 'Jurkat / CD3 arm'.
For assay [3], the target named is T1, human CD3 on T cells. As to the kind of experiment: FACS on Jurkat cells (CD3), anti-huIgG-PE; number printed beside the curve without a quantity name, taken as EC50. Here is the method: (§1) Binding affinities for the each of the CD3/CD20 TDBs were tested by Biacore or FACS analysis, as described above for the anti-CD3 antibodies. Briefly, for Biacore binding assays, human CD3εγ was immobilized on Biacore Series S CM5 sensor chip using the amine coupling kit from Biacore and CD3/CD20 TDBs or Fab variants thereof were in the flow through. For FACS binding assays, either Bjab cells (for B cell antigens) or Jurkat cells (for CD3 antigen) were incubated with various concentrations of TDB antibodies at 4° C. for 30 minutes, then cells were washed and incubated with 2nd antibody (anti-huIgG-PE; BD Bioscience) for another 15 minutes, before cells were washed again and ready for FACS analysis.

Assay [4] deals with T1, human CD3 on T cells. As to the kind of experiment: Scatchard; table headed 'Bivalent Binding Affinity', though its footnote reads 'monovalent binding Kd measured by scatchard'; cells not named.
In assay [5] the target is T1, human CD3 on T cells. As to the kind of experiment: FACS on Jurkat cells (CD3), anti-huIgG-PE; number printed beside the curve without a quantity name, taken as EC50. Here is the method: as §1
The source holds these as a separate data set.

Assay [6] addresses T1, human CD3 on T cells. The description is as above. Here is the method:
as §1
This is another data set of the same source.

In assay [7] the target is T2, human HER2 on cells (human, UniProt P04626 23-1255).
T2 construct: whole, on cells; also called HER2 on SKBR3, MCF7, BT474, 3T3-HER2 and CT26-HER2 cells
As to the kind of experiment: KD (nM) box at the right of the FACS panels; method and antigen form are not stated on the sheet; taken as affinity of the HER2 arm, since the three TDBs differ only in it.

Assay [8] deals with T2, human HER2 on cells. The assay can be described thus: cell-based or functional assay.
Assay [9] addresses T3, HER2 extracellular domain (ECD) (UniProt P04626 23-652, limits assumed).
T3 construct: extracellular domain; also called soluble HER2 extracellular domain; HER2 ECD
The assay can be described thus: HER2 binding affinity of the HER2 arm; assay and form of HER2 not stated on the sheet or in the legend.

Assay [10] addresses T3, HER2 extracellular domain (ECD). The assay can be described thus: HER2 KD relative to 4D5 (WT); assay not stated.
Assay [11] concerns the target T1, human CD3 on T cells. As to the kind of experiment: FACS on Jurkat cells (CD3); EC50 table for the curves of FIGS. 21A-21B; source E. coli. Here is the method: as §1
The target in assay [12] is T4, single chain human CD3ε-26mer-CD3γ (CD3εγ) (human).
T4 construct: also called human CD3εγ
T4 chain: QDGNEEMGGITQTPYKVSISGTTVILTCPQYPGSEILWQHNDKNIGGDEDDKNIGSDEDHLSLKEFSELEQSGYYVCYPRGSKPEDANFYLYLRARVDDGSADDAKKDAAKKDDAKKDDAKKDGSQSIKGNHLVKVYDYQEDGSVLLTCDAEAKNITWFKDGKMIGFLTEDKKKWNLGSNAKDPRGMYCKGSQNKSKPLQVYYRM
The assay can be described thus: Biacore, human CD3εγ on chip, TDB in flow through.

The target in a further assay is T5, murine CD3 (mouse, UniProt P22646 22-189).
T5 construct: also called mouse CD3
T5 sequence (P22646 22-189): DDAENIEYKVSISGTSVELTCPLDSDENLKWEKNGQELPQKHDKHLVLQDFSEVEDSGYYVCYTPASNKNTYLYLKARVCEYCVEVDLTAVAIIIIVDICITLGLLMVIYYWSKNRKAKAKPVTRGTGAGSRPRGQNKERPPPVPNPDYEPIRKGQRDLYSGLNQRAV
The assay can be described thus: Biacore, monovalent KD of the CD3 arm; CD3 antigen not named on the sheet (reactivity mouse).

B1: CD3/CD20 TDB 2H7v16/UCHT1v9 (bispecific antibody, human IgG1, V domains shown)
VH 1: EVQLVESGGGLVQPGGSLRLSCAASGYTFTSYNMHWVRQAPGKGLEWVGAIYPGNGDTSYNQKFKGRFTISVDKSKNTLYLQMNSLRAEDTAVYYCARVVYYSNSYWYFDVWGQGTLVTVSS
VL 1: DIQMTQSPSSLSASVGDRVTITCRASSSVSYMHWYQQKPGKAPKPLIYAPSNLASGVPSRFSGSGSGTDFTLTISSLQPEDFATYYCQQWSFNPPTFGQGTKVEIK
VH 2: EVQLVESGGGLVQPGGSLRLSCAASGYSFTGYTMNWVRQAPGKDLEWVALINPYKGVSTYNQKFKDRFTISVDKSKNTAYLQMNSLRAEDTAVYYCARSGYYGDSDWYFDVWGQGTLVTVSS
VL 2: DIQMTQSPSSLSASVGDRVTITCRASQDIRNYLNWYQQKPGKAPKLLIYYTSRLESGVPSRFSGSGSGTDYTLTISSLQPEDFATYYCQQGNTLPWTFGQGTKLELK
notes: also called TDB A
For the molecule B1, the Kd is 4.2 nM in the assay with human CD3 on T cells [1] and 3 nM with human CD3 on T cells [4]. Besides, the “EC50 (read off the curve)” value in the assay with human CD3 on T cells [2] was ~100 ng/mL. The EC50 is 0.21 µg/mL and 1.4 nM with human CD3 on T cells [3]; 0.533 µg/mL with human CD3 on T cells [5]; 0.09 µg/mL and 0.6 nM in the assay with human CD3 on T cells [6].

B2: hu4D5.Y100A/UCHT1v9 TDB (bispecific antibody, V domains shown)
VH 1: not shown
VL 1: not shown
VH 2: B1 VH 2
VL 2: B1 VL 2
notes: also called hu4D5.Y100A-TDB
B2: the Kd in the assay with human HER2 on cells [7] came to 190 nM.

B3: hu4D5.Y100A (bispecific antibody, V domains shown)
VH 1: not shown
VL 1: not shown
VH 2: EVQLVQSGAEVKKPGASVKVSCKASGYTFTNYYIHWVRQAPGQGLEWIGWIYPGDGNTKYNEKFKGRATLTADTSTSTAYLELSSLRSEDTAVYYCARDSYSNYYFDYWGQGTLVTVSS
VL 2: DIVMTQSPDSLAVSLGERATINCKSSQSLLNSRTRKNYLAWYQQKPGQPPKLLIYWASTRESGVPDRFSGSGSGTDFTLTISSLQAEDVAVYYCTQSFILRTFGQGTKVEIK
notes: not the same molecule as m28, which has the UCHT1v9 arm; also called hu4D5.Y100A-40G5c HER2-TDB
Turning to B3, the “EC50 of SKBR3 target cell killing” value with human HER2 on cells [8] was > 10000 ng/mL. In assay [9], the Kd stood at 60 nM. Also, in assay [10], the KD fold worked out at 120 fold.

B4: 40G5c Ecoli (bispecific antibody, V domains shown)
VH 1: B1 VH 1
VL 1: B1 VL 1
VH 2: B3 VH 2
VL 2: B3 VL 2
modifications: E. coli-produced (aglycosylated) full-length knob-into-hole IgG; constant regions are not in the letters.
notes: E. coli material, aglycosylated; also called CD3/CD20 TDB 2H7v16/40G5c produced in E. coli
With B4, the concentration for a half-maximal effect (EC50) with human CD3 on T cells [11] is 1.85 µg/mL and ~12 nM. In [12], this molecule had a Kd of 71.5 nM, a koff of 0.0256 s⁻¹ and a kon of 358000 M⁻¹ s⁻¹.

B5: 2C11 (antibody, V domains shown)
VH: EVQLVESGGGLVQPGKSLKLSCEASGFTFSGYGMHWVRQAPGRGLESVAYITSSSINIKYADAVKGRFTVSRDNAKNLLFLQMNILKSEDTAMYYCARFDWDKNYWGQGTMVTVSS
VL: DIQMTQSPSSLPASLGDRVTINCQASQDISNYLNWYQQKPGKAPKLLIYYTNKLADGVPSRFSGSGSGRDSSFTISSLESEDIGSYYCQQYYNYPWTFGPGTKLEIK
In the assay with murine CD3, B5 gave a Kd of 22 nM.
